Measurements as given in article PMC2990340.

Target: T1, CsdE-myc-His6 (E. coli K12 MG1655), P0AGF2
T1 chain: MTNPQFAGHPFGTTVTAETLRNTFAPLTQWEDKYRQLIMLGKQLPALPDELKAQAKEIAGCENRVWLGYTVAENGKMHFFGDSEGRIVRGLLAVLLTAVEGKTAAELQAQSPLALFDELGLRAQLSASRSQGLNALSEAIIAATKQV
Experiment: affinity purification with mass spectrometry
Details: remark: other sources report otherwise

stoichiometry N: 2
B1: CsdE-myc-His6, P0AGF2 1-147 (natural protein)
chain: T1 chain
